These results are taken from PMC9482650, “Quantitative fragmentomics allow affinity mapping of interactomes” (Nature Communications, 2022).

Among the targets are GRIP2_7, Q9C0E4; PTPN3, P26045; LNX1_2, Q8TBB1; IL16_1, Q14005; DLG1_1, Q12959; FRMPD3, Q5JV73; GRID2IP_1, A4D2P6; HTRA1, Q92743; PARD3_3, Q8TEW0; GRIP2_4, Q9C0E4; LNX1_1, Q8TBB1.
Holding throughout (assay): holdup assay
What all share (design): key: below the threshold = too weak to quantify, mostly under pKd 3.1 to 4

The target in the next assay is T1, TJP3_3, O95049.
T1 sequence (O95049 375-456, limits assumed, looked up): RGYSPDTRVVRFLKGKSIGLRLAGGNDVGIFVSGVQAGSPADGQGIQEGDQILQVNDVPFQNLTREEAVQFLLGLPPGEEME

The next assay deals with T2, MPDZ_12, O75970.
T2 sequence (O75970 1857-1958, limits assumed, looked up): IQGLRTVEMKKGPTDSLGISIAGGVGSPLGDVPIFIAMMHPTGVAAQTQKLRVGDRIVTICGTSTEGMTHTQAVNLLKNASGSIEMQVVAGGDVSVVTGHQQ

Another assay concerns the target T3, ARHGAP21, Q5T5U3.
T3 sequence (Q5T5U3 45-169, limits assumed, looked up): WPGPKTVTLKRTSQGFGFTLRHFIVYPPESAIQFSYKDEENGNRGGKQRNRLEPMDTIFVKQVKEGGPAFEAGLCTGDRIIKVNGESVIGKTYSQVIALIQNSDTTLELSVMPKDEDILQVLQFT

In the next assay the target is T4, GRIP1_3, Q9Y3R0.
T4 sequence (Q9Y3R0 247-346, limits assumed, looked up): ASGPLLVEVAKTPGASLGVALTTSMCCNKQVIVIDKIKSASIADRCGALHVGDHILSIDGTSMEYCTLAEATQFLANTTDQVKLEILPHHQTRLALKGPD

A further assay concerns the target T5, LIN7C, Q9NUP9.
T5 sequence (Q9NUP9 88-185, limits assumed, looked up): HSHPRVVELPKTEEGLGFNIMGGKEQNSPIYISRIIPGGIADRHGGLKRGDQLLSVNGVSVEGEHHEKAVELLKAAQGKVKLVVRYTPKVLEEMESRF

The target in another assay is T6, PCLO, Q9Y6V0.
T6 sequence (Q9Y6V0 4491-4600, limits assumed, looked up): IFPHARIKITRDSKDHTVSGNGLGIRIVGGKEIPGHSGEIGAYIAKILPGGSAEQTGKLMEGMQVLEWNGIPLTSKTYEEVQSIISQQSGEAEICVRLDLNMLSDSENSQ

The target in the next assay is T7, APBA3_1, O96018.
T7 sequence (O96018 389-490, limits assumed, looked up): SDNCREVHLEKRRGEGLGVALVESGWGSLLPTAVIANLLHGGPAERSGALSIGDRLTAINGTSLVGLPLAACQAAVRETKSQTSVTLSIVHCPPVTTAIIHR

The target of another assay is T8, LNX2_3, Q8N448.
T8 sequence (Q8N448 463-564, limits assumed, looked up): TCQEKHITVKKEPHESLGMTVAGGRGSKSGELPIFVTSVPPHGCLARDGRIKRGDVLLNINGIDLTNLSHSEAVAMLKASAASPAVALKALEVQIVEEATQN

A further assay addresses T9, APBA2_2, Q99767.
T9 sequence (Q99767 654-744, limits assumed, looked up): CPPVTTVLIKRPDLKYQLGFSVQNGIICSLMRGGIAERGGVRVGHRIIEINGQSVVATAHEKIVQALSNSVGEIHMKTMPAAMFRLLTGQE

A further assay addresses T10, LNX2_2, Q8N448.
T10 sequence (Q8N448 334-432, limits assumed, looked up): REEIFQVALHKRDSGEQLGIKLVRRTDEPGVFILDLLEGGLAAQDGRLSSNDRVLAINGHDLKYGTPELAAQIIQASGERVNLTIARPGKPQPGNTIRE

The target of the next assay is T11, SNTG1, Q9NSN8.
T11 sequence (Q9NSN8 52-150, limits assumed, looked up): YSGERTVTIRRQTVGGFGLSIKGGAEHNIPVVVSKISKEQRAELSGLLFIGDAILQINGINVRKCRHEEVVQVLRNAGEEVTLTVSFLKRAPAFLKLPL

The target of the next assay is T12, SYNJ2BP, P57105.
T12 sequence (P57105 8-110, limits assumed, looked up): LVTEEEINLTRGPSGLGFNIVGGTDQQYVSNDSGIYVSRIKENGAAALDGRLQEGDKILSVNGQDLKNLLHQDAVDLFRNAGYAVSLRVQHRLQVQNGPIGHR

Another assay addresses T13, PTPN13_1, Q12923.
T13 sequence (Q12923 1088-1188, limits assumed, looked up): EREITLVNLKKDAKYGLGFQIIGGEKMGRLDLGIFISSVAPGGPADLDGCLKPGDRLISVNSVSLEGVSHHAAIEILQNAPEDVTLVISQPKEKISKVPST

Where [1] appears, read: plain residues with an end cap or a label only (N-terminal biotin on a linker: ahx).
Setting [2] is: plain residues with an end cap or a label only (N-terminal biotin on a linker: ado-ado).
Setting [3] is: plain residues with an end cap or a label only (N-terminal biotin on a linker: ttds).

LNX1_1, Q8TBB1, sequence (Q8TBB1 261-371): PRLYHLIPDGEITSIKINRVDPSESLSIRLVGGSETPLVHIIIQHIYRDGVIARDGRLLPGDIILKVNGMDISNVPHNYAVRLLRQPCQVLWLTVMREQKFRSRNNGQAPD
FRMPD3, Q5JV73, sequence (Q5JV73 12-100): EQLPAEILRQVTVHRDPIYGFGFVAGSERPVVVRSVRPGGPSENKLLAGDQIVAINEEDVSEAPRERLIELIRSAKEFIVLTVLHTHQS
LNX1_2, Q8TBB1, sequence (Q8TBB1 371-470): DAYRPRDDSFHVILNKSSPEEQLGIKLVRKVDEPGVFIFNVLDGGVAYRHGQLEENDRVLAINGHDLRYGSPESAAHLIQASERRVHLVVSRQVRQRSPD
PARD3_3, Q8TEW0, sequence (Q8TEW0 582-685): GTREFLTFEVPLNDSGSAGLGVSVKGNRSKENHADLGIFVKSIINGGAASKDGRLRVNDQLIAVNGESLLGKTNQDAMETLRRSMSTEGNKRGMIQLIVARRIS
IL16_1, Q14005, sequence (Q14005 210-306): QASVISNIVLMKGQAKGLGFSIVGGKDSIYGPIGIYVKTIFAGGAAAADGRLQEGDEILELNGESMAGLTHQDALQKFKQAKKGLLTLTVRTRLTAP
GRIP2_7, Q9C0E4, sequence (Q9C0E4 934-1023): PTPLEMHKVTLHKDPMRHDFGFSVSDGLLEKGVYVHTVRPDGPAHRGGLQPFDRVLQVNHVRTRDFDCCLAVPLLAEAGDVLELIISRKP
HTRA1, Q92743, sequence (Q92743 360-477): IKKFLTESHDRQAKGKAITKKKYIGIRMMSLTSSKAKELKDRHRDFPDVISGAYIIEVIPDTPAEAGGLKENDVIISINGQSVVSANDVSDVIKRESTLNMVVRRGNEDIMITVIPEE
GRID2IP_1, A4D2P6, sequence (A4D2P6 1-87): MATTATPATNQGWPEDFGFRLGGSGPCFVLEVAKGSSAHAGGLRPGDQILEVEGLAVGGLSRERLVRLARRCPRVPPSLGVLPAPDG
PTPN3, P26045, sequence (P26045 505-587): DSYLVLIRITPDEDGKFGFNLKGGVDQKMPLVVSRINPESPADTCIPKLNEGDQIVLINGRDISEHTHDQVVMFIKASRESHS
GRIP2_4, Q9C0E4, sequence (Q9C0E4 446-548): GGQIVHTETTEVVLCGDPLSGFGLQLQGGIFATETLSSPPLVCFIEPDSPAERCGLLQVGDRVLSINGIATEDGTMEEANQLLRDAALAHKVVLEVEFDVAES

What is called pKd is the Kd on a negative log10 scale, so that one unit is a factor of ten. As to HSATSVHTSV [MTMR1, Q13613], the pKd entry was “below the threshold” with TJP3_3, O95049 (setting [1]); “below the threshold” with MPDZ_12, O75970 (setting [1]); 3.49 with ARHGAP21, Q5T5U3 (setting [1]); “below the threshold” with GRIP2_7, Q9C0E4 (setting [1]); “below the threshold” with GRIP1_3, Q9Y3R0 (setting [1]); 4.16 with PTPN3, P26045 (setting [1]). Moreover, the pKd result is “below the threshold” in the assay with LNX1_2, Q8TBB1 (setting [1]); “below the threshold” with IL16_1, Q14005 (setting [1]); “below the threshold” with LIN7C, Q9NUP9 (setting [1]); 4.26 with DLG1_1, Q12959 (setting [1]); “below the threshold” in the assay with FRMPD3, Q5JV73 (setting [1]); “below the threshold” in the assay with GRID2IP_1, A4D2P6 (setting [1]). Also, the negative-log Kd (pKd) with HTRA1, Q92743 (setting [1]) was 3.51; in the assay with PCLO, Q9Y6V0 (setting [1]), “below the threshold”; with APBA3_1, O96018 (setting [1]), “below the threshold”; with LNX2_3, Q8N448 (setting [1]), “below the threshold”; with APBA2_2, Q99767 (setting [1]), “below the threshold”; with LNX2_2, Q8N448 (setting [1]), 3.96. Also, the pKd with PARD3_3, Q8TEW0 (setting [1]) is 3.73; with SNTG1, Q9NSN8 (setting [1]), “below the threshold”; in the assay with GRIP2_4, Q9C0E4 (setting [1]), “below the threshold”; with LNX1_1, Q8TBB1 (setting [1]) it was “below the threshold”; in the assay with SYNJ2BP, P57105 (setting [1]) it was 4.42; with PTPN13_1, Q12923 (setting [1]), “below the threshold”.
Turning to SQDPKKPSRV [CBY2, Q8NA61], the pKd result was “below the threshold” in the assay with TJP3_3, O95049 (setting [2]); “below the threshold” with MPDZ_12, O75970 (setting [2]); 4.04 in the assay with ARHGAP21, Q5T5U3 (setting [2]); “below the threshold” with GRIP2_7, Q9C0E4 (setting [2]); “below the threshold” with GRIP1_3, Q9Y3R0 (setting [2]); “below the threshold” in the assay with PTPN3, P26045 (setting [2]). For the same molecule, the negative logarithm of the Kd (pKd) entry with LNX1_2, Q8TBB1 (setting [2]) is recorded as “below the threshold”; with IL16_1, Q14005 (setting [2]), “below the threshold”; in the assay with LIN7C, Q9NUP9 (setting [2]), “below the threshold”; with DLG1_1, Q12959 (setting [2]), “below the threshold”; with FRMPD3, Q5JV73 (setting [2]), “below the threshold”; in the assay with GRID2IP_1, A4D2P6 (setting [2]), “below the threshold”. Further, the pKd result in the assay with HTRA1, Q92743 (setting [2]) is reported as “below the threshold”; with PCLO, Q9Y6V0 (setting [2]), “below the threshold”; in the assay with APBA3_1, O96018 (setting [2]), “below the threshold”; in the assay with LNX2_3, Q8N448 (setting [2]), “below the threshold”; with APBA2_2, Q99767 (setting [2]), “below the threshold”; in the assay with LNX2_2, Q8N448 (setting [2]), “below the threshold”. Moreover, the negative-log Kd (pKd) entry is “below the threshold” in the assay with PARD3_3, Q8TEW0 (setting [2]); “below the threshold” with SNTG1, Q9NSN8 (setting [2]); “below the threshold” with GRIP2_4, Q9C0E4 (setting [2]); 3.5 with LNX1_1, Q8TBB1 (setting [2]); 3.66 with SYNJ2BP, P57105 (setting [2]); “below the threshold” with PTPN13_1, Q12923 (setting [2]).
DLDEEEDTHL [PODXL, O00592]: the pKd with TJP3_3, O95049 (setting [3]) is 3.5; with MPDZ_12, O75970 (setting [3]), “below the threshold”; with ARHGAP21, Q5T5U3 (setting [3]), 3.56; in the assay with GRIP2_7, Q9C0E4 (setting [3]), “below the threshold”; with GRIP1_3, Q9Y3R0 (setting [3]), “below the threshold”; with PTPN3, P26045 (setting [3]) it was 3.85. Further, the pKd result in the assay with LNX1_2, Q8TBB1 (setting [3]) is “below the threshold”; with IL16_1, Q14005 (setting [3]), “below the threshold”; with LIN7C, Q9NUP9 (setting [3]), “below the threshold”; with DLG1_1, Q12959 (setting [3]) it was 3.63; with FRMPD3, Q5JV73 (setting [3]), 3.6; with GRID2IP_1, A4D2P6 (setting [3]), “below the threshold”. In addition, the negative logarithm of the Kd (pKd) is 3.73 with HTRA1, Q92743 (setting [3]); “below the threshold” with PCLO, Q9Y6V0 (setting [3]); “below the threshold” with APBA3_1, O96018 (setting [3]); “below the threshold” in the assay with LNX2_3, Q8N448 (setting [3]); “below the threshold” with APBA2_2, Q99767 (setting [3]); 3.48 in the assay with LNX2_2, Q8N448 (setting [3]). For the same molecule, the negative-log Kd (pKd) in the assay with PARD3_3, Q8TEW0 (setting [3]) was 4.22; with SNTG1, Q9NSN8 (setting [3]), 3.49; with GRIP2_4, Q9C0E4 (setting [3]), “below the threshold”; in the assay with LNX1_1, Q8TBB1 (setting [3]) it was “below the threshold”; in the assay with SYNJ2BP, P57105 (setting [3]), “below the threshold”; with PTPN13_1, Q12923 (setting [3]), “below the threshold”.
In the case of IGHEDLETAV [DGKI, O75912], the pKd result in the assay with TJP3_3, O95049 (setting [2]) was “below the threshold”; with MPDZ_12, O75970 (setting [2]), “below the threshold”; with ARHGAP21, Q5T5U3 (setting [2]), “below the threshold”; with GRIP2_7, Q9C0E4 (setting [2]) it was “below the threshold”; in the assay with GRIP1_3, Q9Y3R0 (setting [2]) it was “below the threshold”; with PTPN3, P26045 (setting [2]), 5.02. The negative-log Kd (pKd) result with LNX1_2, Q8TBB1 (setting [2]) was “below the threshold”; with IL16_1, Q14005 (setting [2]), 4.26; with LIN7C, Q9NUP9 (setting [2]) it was 4.57; with DLG1_1, Q12959 (setting [2]), 4.51; with FRMPD3, Q5JV73 (setting [2]), “below the threshold”; with GRID2IP_1, A4D2P6 (setting [2]), “below the threshold”. In addition, the negative logarithm of the Kd (pKd) with HTRA1, Q92743 (setting [2]) is 3.65; in the assay with PCLO, Q9Y6V0 (setting [2]), “below the threshold”; with APBA3_1, O96018 (setting [2]), “below the threshold”; with LNX2_3, Q8N448 (setting [2]), “below the threshold”; in the assay with APBA2_2, Q99767 (setting [2]), “below the threshold”; with LNX2_2, Q8N448 (setting [2]), 3.73. The pKd is 3.64 with PARD3_3, Q8TEW0 (setting [2]); 5.43 in the assay with SNTG1, Q9NSN8 (setting [2]); “below the threshold” with GRIP2_4, Q9C0E4 (setting [2]); 3.58 in the assay with LNX1_1, Q8TBB1 (setting [2]); 5.25 with SYNJ2BP, P57105 (setting [2]); “below the threshold” in the assay with PTPN13_1, Q12923 (setting [2]).
